Common to all, as to experiment: cell-based or functional assay
The target in experiment [1] is spike protein of SARS-CoV-2 strain B.1.1.7 (SARS-CoV-2) (UniProt P0DTC2).
The target in experiment [2] is spike protein of SARS-CoV-2 strain B.1.351 (SARS-CoV-2) (UniProt P0DTC2).
Experiment [3] has as its target spike protein of SARS-CoV-2 strain P.1 (SARS-CoV-2) (UniProt P0DTC2).
Experiment [4] addresses spike protein of SARS-CoV-2 strain Victoria (SARS-CoV-2/human/AUS/VIC01/2020) (SARS-CoV-2) (UniProt P0DTC2).
For experiment [5], the target named is SARS-CoV-2 spike protein on authentic virus, strain B.1.1.7 (SARS-CoV-2) (UniProt P0DTC2).
The target in experiment [6] is SARS-CoV-2 spike protein on authentic virus, strain SARS-CoV-2/human/AUS/VIC01/2020 (Victoria) (SARS-CoV-2) (UniProt P0DTC2).

Regarding ADG10 (antibody), in experiment [1], the FRNT50 ratio B.1.1.7/Victoria was found to be 1.8 and the IC50 (FRNT neutralisation) stood at 0.01 µg/mL. In addition, in experiment [2], the FRNT50 ratio B.1.351/Victoria was 1.9 and the IC50 (FRNT neutralisation) was found to be 0.011 µg/mL. Also, the FRNT50 ratio P.1/Victoria in experiment [3] worked out at 0.5. Besides, the IC50 (FRNT neutralisation) in experiment [4] is 0.006 µg/mL.
In the case of ADG20 (antibody), in experiment [1], the FRNT50 ratio B.1.1.7/Victoria stood at 1.4 and the IC50 (FRNT neutralisation) worked out at 0.006 µg/mL. In experiment [2], the FRNT50 ratio B.1.351/Victoria was determined as 2.5 and the IC50 (FRNT neutralisation) was 0.01 µg/mL. For the same substance, the FRNT50 ratio P.1/Victoria in experiment [3] was 2.2. In experiment [4], the IC50 (FRNT neutralisation) was found to be 0.004 µg/mL.
For ADG30 (antibody), in experiment [1], the FRNT50 ratio B.1.1.7/Victoria came to 2.5 and the IC50 (FRNT neutralisation) was 0.016 µg/mL. Further, in experiment [2], the FRNT50 ratio B.1.351/Victoria was found to be 4.4 and the IC50 (FRNT neutralisation) worked out at 0.029 µg/mL. The FRNT50 ratio P.1/Victoria in experiment [3] worked out at 0.3. Besides, the IC50 (FRNT neutralisation) in experiment [4] came out at 0.007 µg/mL.
As to AZD1061 (antibody), the values for the IC50 (ug/ml), FRNT in experiment [5] and in experiment [6] were 0.012 µg/mL and 0.013 µg/mL, respectively. Moreover, the IC50 (FRNT neutralisation) in experiment [1] amounted to 0.012 µg/mL; in experiment [2], 0.014 µg/mL; in experiment [4], 0.013 µg/mL. In experiment [4], this substance yielded an IC50 (FRNT, live virus neutralisation) of 0.013 µg/mL.
As to AZD8895 (antibody), the IC50 (ug/ml), FRNT in experiment [5] stood at 0.011 µg/mL; in experiment [6], 0.005 µg/mL. Besides, the IC50 (FRNT neutralisation) in experiment [1] worked out at 0.011 µg/mL; in experiment [2], 0.046 µg/mL; in experiment [4] it was 0.005 µg/mL. In experiment [4], this substance gave an IC50 (FRNT, live virus neutralisation) of 0.005 µg/mL.
As for LY-CoV16 (antibody), in experiment [1], the FRNT50 ratio B.1.1.7/Victoria turned out to be 1.5 and the IC50 (FRNT neutralisation) stood at 3.23 µg/mL. Besides, in experiment [2], the FRNT50 ratio B.1.351/Victoria is over 291 and the IC50 (FRNT neutralisation) was over 10 µg/mL. Also, the FRNT50 ratio P.1/Victoria in experiment [3] is over 291. In experiment [4], this substance displayed an IC50 (FRNT neutralisation) of 0.034 µg/mL.
Regarding LY-CoV555 (antibody), in experiment [1], the FRNT50 ratio B.1.1.7/Victoria was 1.5 and the IC50 (FRNT neutralisation) turned out to be 0.009 µg/mL. For the same substance, in experiment [2], the FRNT50 ratio B.1.351/Victoria is over 1550 and the IC50 (FRNT neutralisation) was over 10 µg/mL. In addition, the FRNT50 ratio P.1/Victoria in experiment [3] was over 1550. The substance also gave an IC50 (FRNT neutralisation) in experiment [4] of 0.006 µg/mL.
In the case of REGN10933 (antibody), the IC50 (ug/ml), FRNT amounted to 0.014 µg/mL in experiment [5] and 0.004 µg/mL in experiment [6]. Also, the IC50 (FRNT neutralisation) came to 0.014 µg/mL in experiment [1], 3.28 µg/mL in experiment [2] and 0.004 µg/mL in experiment [4]. The substance also had an IC50 (FRNT, live virus neutralisation) in experiment [4] of 0.004 µg/mL.
Consider REGN10987 (antibody), for which the IC50 (ug/ml), FRNT was 0.028 µg/mL in experiment [5] and 0.032 µg/mL in experiment [6]. Further, the IC50 (FRNT neutralisation) is 0.028 µg/mL in experiment [1], 0.007 µg/mL in experiment [2] and 0.032 µg/mL in experiment [4]. Moreover, the IC50 (FRNT, live virus neutralisation) in experiment [4] turned out to be 0.032 µg/mL.
With S309 (antibody), in experiment [1], the FRNT50 ratio B.1.1.7/Victoria came out at 1.5. The IC50 (FRNT neutralisation) came out at 0.078 µg/mL in experiment [1], 0.082 µg/mL in experiment [2] and 0.04 µg/mL in experiment [4]. Also, in experiment [2], the FRNT50 ratio B.1.351/Victoria was 2. The FRNT50 ratio P.1/Victoria in experiment [3] came to 1.9.
